# Ends that are not written are not given here. * marks the point of attachment. Cbz = O=C(OCc1ccccc1)*
# T1: 697-neo HM (spontaneous activity) caspase (human, UniProt P42574 14-175, limits assumed)
# T1 sequence 1: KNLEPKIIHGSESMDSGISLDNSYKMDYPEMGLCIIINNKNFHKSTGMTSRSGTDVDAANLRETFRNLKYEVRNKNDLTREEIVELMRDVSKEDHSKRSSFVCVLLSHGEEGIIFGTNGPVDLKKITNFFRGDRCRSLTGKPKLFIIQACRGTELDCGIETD
# T1 sequence 2: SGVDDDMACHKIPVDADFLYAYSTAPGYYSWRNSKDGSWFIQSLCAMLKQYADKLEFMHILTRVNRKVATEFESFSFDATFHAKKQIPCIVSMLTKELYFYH
# T2: 697-neo HM (caspase-1 treated) caspase (human, UniProt P42574 14-175; P42574 176-277, limits assumed)
# T2 chain 1: T1 sequence 1
# T2 chain 2: T1 sequence 2
# T3: 697 Bcl-2 HM (caspase-1 treated) caspase (human, UniProt P42574 14-175; P42574 176-277, limits assumed)
# T3 chain 1: T1 sequence 1
# T3 chain 2: T1 sequence 2
# T4: r-caspase-3 (His)6 (human, UniProt P42574 29-175; P42574 176-277)
# T4 sequence 1: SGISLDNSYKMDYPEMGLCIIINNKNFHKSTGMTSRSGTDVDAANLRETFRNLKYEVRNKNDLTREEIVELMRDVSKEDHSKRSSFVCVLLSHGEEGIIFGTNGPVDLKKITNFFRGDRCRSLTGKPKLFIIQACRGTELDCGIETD
# T4 sequence 2: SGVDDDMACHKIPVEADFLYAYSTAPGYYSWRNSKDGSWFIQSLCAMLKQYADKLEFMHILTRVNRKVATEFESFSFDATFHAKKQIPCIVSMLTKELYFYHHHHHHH
# T5: affinity purified membrane derived caspase-3 from 697 cell heavy membranes (human, UniProt P42574 14-175; P42574 176-277, limits assumed)
# T5 chain 1: T1 sequence 1
# T5 chain 2: T1 sequence 2
# Key:
# Assay in all cases: cell-based or functional assay
# [1] = target: cortical cell HM (caspase-1 treated) caspase (mouse)
# [2] = target: T1, 697-neo HM (spontaneous activity) …
# [3] = target: T2, 697-neo HM (caspase-1 treated) caspase
# [4] = target: MN9D HM (caspase-1 treated) caspase (mouse)
# [5] = target: T3, 697 Bcl-2 HM (caspase-1 treated) caspase
# [6] = target: T4, r-caspase-3 (His)6
# [7] = target: T5, affinity purified membrane derived …
# [8] = target: T4, r-caspase-3 (His)6; remark: listed apart in the source
Binder,"IC50, inhibition of DEVD-amc cleavage [1] [nM]","IC50, inhibition of DEVD-amc cleavage [2] [nM]","IC50, inhibition of DEVD-amc cleavage [3] [nM]","IC50, inhibition of DEVD-amc cleavage [4] [nM]","IC50, inhibition of DEVD-amc cleavage [5] [nM]","IC50, inhibition of DEVD-amc cleavage [6] [nM]","IC50, inhibition of DEVD-AMC cleavage activity [7] [nM]","IC50, inhibition of DEVD-AMC cleavage activity [8] [nM]"
DFLD-aldehyde [DFLD-ald],2.3,3.4,4.5,2.5,3.6,1.5,4.7,1.1
DEVD-aldehyde [DEVD-ald],1,,,0.72,,1,1,1
VEID-aldehyde [VEIDald],,,,,,,34,32

# Other lines, results leading:
"IC50, inhibition of DEVD-amc cleavage [1] [nM]","IC50, inhibition of DEVD-amc cleavage [2] [nM]","IC50, inhibition of DEVD-amc cleavage [3] [nM]","IC50, inhibition of DEVD-amc cleavage [4] [nM]","IC50, inhibition of DEVD-amc cleavage [5] [nM]","IC50, inhibition of DEVD-amc cleavage [6] [nM]","IC50, inhibition of DEVD-AMC cleavage activity [7] [nM]","IC50, inhibition of DEVD-AMC cleavage activity [8] [nM]",Binder
> 10000,,,> 10000,,> 10000,,,Ac-YVAD-aldehyde [YVAD-ald]
,,,,,,32,24,Cbz-Glu-Val-Asp-aldehyde (SMILES CC(C)[C@H](NC(=O)[C@H](CCC(=O)O)NC(=O)OCc1ccccc1)C(=O)N[C@H](C=O)CC(=O)O) [ZEVDald]

# Source: patent publication US20020197702A1 (IDUN PHARMACEUTICALS, published 2002)
